From publication PMC5548120 come the findings set out here.

The experiment concerns the target T1, rat TRPV2 (transient receptor potential vanilloid 2), full-length, with a 1D4-tag (rat), Q9WUD2.
T1 chain: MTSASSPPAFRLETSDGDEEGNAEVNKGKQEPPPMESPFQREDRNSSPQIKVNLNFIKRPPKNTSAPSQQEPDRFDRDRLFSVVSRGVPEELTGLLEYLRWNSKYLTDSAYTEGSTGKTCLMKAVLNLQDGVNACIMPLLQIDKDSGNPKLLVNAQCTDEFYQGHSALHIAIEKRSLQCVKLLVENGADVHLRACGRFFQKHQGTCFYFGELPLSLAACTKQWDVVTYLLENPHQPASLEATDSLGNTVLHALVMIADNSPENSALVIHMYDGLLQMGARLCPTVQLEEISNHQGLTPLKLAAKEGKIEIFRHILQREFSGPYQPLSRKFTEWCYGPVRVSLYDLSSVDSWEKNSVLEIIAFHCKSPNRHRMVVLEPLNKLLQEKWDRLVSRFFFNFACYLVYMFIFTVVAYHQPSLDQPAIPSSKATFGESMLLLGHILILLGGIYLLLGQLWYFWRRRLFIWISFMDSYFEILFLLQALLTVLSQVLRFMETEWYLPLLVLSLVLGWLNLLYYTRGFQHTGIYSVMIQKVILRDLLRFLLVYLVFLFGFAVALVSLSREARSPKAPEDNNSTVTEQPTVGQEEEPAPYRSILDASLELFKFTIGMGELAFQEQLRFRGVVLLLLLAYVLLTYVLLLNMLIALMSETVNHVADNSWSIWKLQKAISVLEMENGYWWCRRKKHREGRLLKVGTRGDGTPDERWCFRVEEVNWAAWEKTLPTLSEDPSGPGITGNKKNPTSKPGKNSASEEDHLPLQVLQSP
Description: SEC + native gel or EMSA. The following applies: remark: other sources report otherwise. (Mobility shift assays separate free from complexed probe on a gel.)

B1: rat TRPV2 (transient receptor potential vanilloid 2), full-length, with a 1D4-tag, Q9WUD2 1-761 (natural protein)
chain: MTSASSPPAFRLETSDGDEEGNAEVNKGKQEPPPMESPFQREDRNSSPQIKVNLNFIKRPPKNTSAPSQQEPDRFDRDRLFSVVSRGVPEELTGLLEYLRWNSKYLTDSAYTEGSTGKTCLMKAVLNLQDGVNACIMPLLQIDKDSGNPKLLVNAQCTDEFYQGHSALHIAIEKRSLQCVKLLVENGADVHLRACGRFFQKHQGTCFYFGELPLSLAACTKQWDVVTYLLENPHQPASLEATDSLGNTVLHALVMIADNSPENSALVIHMYDGLLQMGARLCPTVQLEEISNHQGLTPLKLAAKEGKIEIFRHILQREFSGPYQPLSRKFTEWCYGPVRVSLYDLSSVDSWEKNSVLEIIAFHCKSPNRHRMVVLEPLNKLLQEKWDRLVSRFFFNFACYLVYMFIFTVVAYHQPSLDQPAIPSSKATFGESMLLLGHILILLGGIYLLLGQLWYFWRRRLFIWISFMDSYFEILFLLQALLTVLSQVLRFMETEWYLPLLVLSLVLGWLNLLYYTRGFQHTGIYSVMIQKVILRDLLRFLLVYLVFLFGFAVALVSLSREARSPKAPEDNNSTVTEQPTVGQEEEPAPYRSILDASLELFKFTIGMGELAFQEQLRFRGVVLLLLLAYVLLTYVLLLNMLIALMSETVNHVADNSWSIWKLQKAISVLEMENGYWWCRRKKHREGRLLKVGTRGDGTPDERWCFRVEEVNWAAWEKTLPTLSEDPSGPGITGNKKNPTSKPGKNSASEEDHLPLQVLQSP
With B1, the stoichiometry N was 4.

The stoichiometry N is the number of molecules, sites or subunits per partner or assembly.
